# Measured values: the supplement of paper PMC6757056
# ± gives the standard deviation of the averaged measurements.
# B1: library; a variant is named by its letters at N, in order (parent)
# chain: GCUGUCACCGGAAUACCAGCAUCGUCUUGAUGCCCUUGGAAGUCCGGUCUGAUGAGUCCNNNNNGGACGAAACAGC
# Key:
# theophylline [1] = variants of: B1; assay: FACS-Seq fitted mean relative fluorescence mCherry/BFP without ligand (log10 relative fluorescence); higher = higher reporter protein expression; settings: HEK293T, ligand present: no
# Procedure, shortened: (§1)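 HEK293T libraries were lentivirally transduced with an mCherry reporter carrying the ribozyme switch and an EF1α-BFP marker, enriched, and incubated for 48 h with or without ligand before sorting into 6 bins by mCherry/BFP. Genomic DNA from each bin was PCR-amplified, barcoded and sequenced on MiSeq. Fluorescence is the fitted normal mean of the bin counts. The fit used log10(mCherry/BFP), and means were scaled to five spiked-in control ribozymes.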
# theophylline [2] = variants of: B1; assay: normalized RNA/DNA level with ligand (relative to sTRSVctl = 100) (log10 (% of sTRSVctl)); higher = less ribozyme self-cleavage, higher mRNA level; settings: ligand concentration (+) RNA-Seq: 5 mM, HEK293T, reporter: mCherry (pCS4076), ligand present: yes
# Procedure, shortened: (§2)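 Library plasmids carrying ribozyme switches linked to mCherry, or to eGFP in some ligand experiments, were transfected into HEK293T at 4 µg per 6-well well, with any ligand added 1 h earlier. Seventy-two hours on, total RNA was extracted with EDTA and reverse-transcribed, amplified, barcoded and sequenced. RNA level was RNA over DNA reads normalized to a spiked-in non-cleaving sequence or to the top sequences, then scaled and log-transformed. The top set was 25 sequences, the transform was ×100 and log10, and sequences needed ≥100 DNA reads.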
# theophylline [3] = variants of: B1; assay: normalized RNA/DNA level without ligand (relative to sTRSVctl = 100) (log10 (% of sTRSVctl)); higher = less ribozyme self-cleavage, higher mRNA level; settings: HEK293T, reporter: mCherry (pCS4076), ligand present: no
# Procedure, shortened: as §2
# theophylline [4] = variants of: B1; assay: FACS-Seq fitted mean relative fluorescence mCherry/BFP with ligand (log10 relative fluorescence); ligand concentration (+) FACS-Seq: 1 mM; higher = higher reporter protein expression; settings: HEK293T, ligand present: yes
# Procedure, shortened: as §1
variant,measurement,setting,value
UACAA,FACS-Seq fitted mean (log10),theophylline [1],0.427 ± 0.022
same,normalized RNA/DNA level with ligand (log10),theophylline [2],1.972 ± 0.012
same,normalized RNA/DNA level without ligand (log10),theophylline [3],1.6 ± 0.032
same,FACS-Seq fitted mean (log10),theophylline [4],0.553 ± 0.018
UACAC,FACS-Seq fitted mean (log10),theophylline [1],0.83 ± 0.034
same,normalized RNA/DNA level with ligand (log10),theophylline [2],1.98 ± 0.02
same,normalized RNA/DNA level without ligand (log10),theophylline [3],1.99 ± 0.025
same,FACS-Seq fitted mean (log10),theophylline [4],0.695 ± 0.097
AAUCG,FACS-Seq fitted mean (log10),theophylline [1],0.941 ± 0.16
same,normalized RNA/DNA level with ligand (log10),theophylline [2],2.06 ± 0.06
same,normalized RNA/DNA level without ligand (log10),theophylline [3],1.87 ± 0.1
same,FACS-Seq fitted mean (log10),theophylline [4],0.953 ± 0.04
UAACU,FACS-Seq fitted mean (log10),theophylline [1],0.803 ± 0.036
same,normalized RNA/DNA level with ligand (log10),theophylline [2],2 ± 0.14
same,normalized RNA/DNA level without ligand (log10),theophylline [3],1.89 ± 0.02
same,FACS-Seq fitted mean (log10),theophylline [4],0.716 ± 0.1
AUGCA,FACS-Seq fitted mean (log10),theophylline [1],0.792 ± 0.023
same,normalized RNA/DNA level with ligand (log10),theophylline [2],2.023 ± 0.014
same,normalized RNA/DNA level without ligand (log10),theophylline [3],1.841 ± 0.0049
same,FACS-Seq fitted mean (log10),theophylline [4],0.96 ± 0.14
CAAUU,FACS-Seq fitted mean (log10),theophylline [1],0.59 ± 0.019
same,normalized RNA/DNA level with ligand (log10),theophylline [2],2.02 ± 0.033
same,normalized RNA/DNA level without ligand (log10),theophylline [3],1.65 ± 0.096
same,FACS-Seq fitted mean (log10),theophylline [4],0.775 ± 0.021
CCCGA,FACS-Seq fitted mean (log10),theophylline [1],0.977 ± 0.19
same,normalized RNA/DNA level with ligand (log10),theophylline [2],1.956 ± 0.018
same,normalized RNA/DNA level without ligand (log10),theophylline [3],1.93 ± 0.077
same,FACS-Seq fitted mean (log10),theophylline [4],0.827 ± 0.058
CCCGU,FACS-Seq fitted mean (log10),theophylline [1],0.812 ± 0.08
same,normalized RNA/DNA level with ligand (log10),theophylline [2],1.91 ± 0.23
same,normalized RNA/DNA level without ligand (log10),theophylline [3],1.894 ± 0.014
same,FACS-Seq fitted mean (log10),theophylline [4],0.82 ± 0.087
CCCGC,FACS-Seq fitted mean (log10),theophylline [1],1.3 ± 0.15
same,normalized RNA/DNA level with ligand (log10),theophylline [2],2.02 ± 0.021
same,normalized RNA/DNA level without ligand (log10),theophylline [3],2.088 ± 0.019
same,FACS-Seq fitted mean (log10),theophylline [4],1.05 ± 0.028
ACGAG,FACS-Seq fitted mean (log10),theophylline [1],0.428 ± 0.049
same,normalized RNA/DNA level with ligand (log10),theophylline [2],2.05 ± 0.026
same,normalized RNA/DNA level without ligand (log10),theophylline [3],1.85 ± 0.073
same,FACS-Seq fitted mean (log10),theophylline [4],0.448 ± 0.017
AGCGU,FACS-Seq fitted mean (log10),theophylline [1],-0.0881 ± 0.074
same,normalized RNA/DNA level with ligand (log10),theophylline [2],2.01 ± 0.027
same,normalized RNA/DNA level without ligand (log10),theophylline [3],1.82 ± 0.055
same,FACS-Seq fitted mean (log10),theophylline [4],0.017 ± 0.14
AGCGC,FACS-Seq fitted mean (log10),theophylline [1],0.459 ± 0.1
same,normalized RNA/DNA level with ligand (log10),theophylline [2],2.058 ± 0.016
same,normalized RNA/DNA level without ligand (log10),theophylline [3],1.98 ± 0.047
same,FACS-Seq fitted mean (log10),theophylline [4],0.52 ± 0.18
UCCCU,FACS-Seq fitted mean (log10),theophylline [1],0.877 ± 0.032
same,normalized RNA/DNA level with ligand (log10),theophylline [2],2.08 ± 0.12
same,normalized RNA/DNA level without ligand (log10),theophylline [3],1.97 ± 0.026
same,FACS-Seq fitted mean (log10),theophylline [4],1.03 ± 0.11
UAUCC,FACS-Seq fitted mean (log10),theophylline [1],0.705 ± 0.11
same,normalized RNA/DNA level with ligand (log10),theophylline [2],2.007 ± 0.016
same,normalized RNA/DNA level without ligand (log10),theophylline [3],2.02 ± 0.14
same,FACS-Seq fitted mean (log10),theophylline [4],0.572 ± 0.019
UAAAC,FACS-Seq fitted mean (log10),theophylline [1],0.86 ± 0.034
same,normalized RNA/DNA level with ligand (log10),theophylline [2],1.978 ± 0.013
same,normalized RNA/DNA level without ligand (log10),theophylline [3],1.91 ± 0.096
same,FACS-Seq fitted mean (log10),theophylline [4],0.924 ± 0.042
UAAAA,FACS-Seq fitted mean (log10),theophylline [1],0.164 ± 0.019
same,normalized RNA/DNA level with ligand (log10),theophylline [2],1.99 ± 0.029
same,normalized RNA/DNA level without ligand (log10),theophylline [3],1.206 ± 0.0047
same,FACS-Seq fitted mean (log10),theophylline [4],0.589 ± 0.038
UUACC,FACS-Seq fitted mean (log10),theophylline [1],0.865 ± 0.28
same,normalized RNA/DNA level with ligand (log10),theophylline [2],2.02 ± 0.022
same,normalized RNA/DNA level without ligand (log10),theophylline [3],1.96 ± 0.095
same,FACS-Seq fitted mean (log10),theophylline [4],0.847 ± 0.12
UGUGU,FACS-Seq fitted mean (log10),theophylline [1],0.525 ± 0.032
same,normalized RNA/DNA level with ligand (log10),theophylline [2],1.88 ± 0.044
same,normalized RNA/DNA level without ligand (log10),theophylline [3],1.87 ± 0.15
same,FACS-Seq fitted mean (log10),theophylline [4],0.589 ± 0.048
